Among the data in PMC10175771 are stoichiometry N values, retold here.

This assay has as its target P. falciparum cytochrome c-2 (PF3D7_1311700), recombinant, hemylated, N-terminal His6 tag (P. falciparum) (UniProt Q8I6T6). Nature of the assay: crystal structure.

Regarding “P. falciparum cytochrome c-2 (PF3D7_1311700), recombinant, hemylated, N-terminal His6 tag (from UniProt Q8I6T6 1-159) (natural protein)”, the stoichiometry N was determined as 2.

Broadly, the stoichiometry N is the number of molecules, sites or subunits per partner or assembly.
